Earlier results in paper PMC4788383.
Read-outs that look alike come from different tables or passages of the source.

Tests used:
[1] = target: RNA polymerase II CTD peptide CTD (Homo sapiens) (UniProt P24928)
[2] = target: RNA polymerase II CTD peptide CTD (Homo sapiens) (UniProt P24928); remark: listed apart in the source

## Pin1 (from UniProt Q13526)
[1]
  Kd: 61 µM
[2]
  Kd: 30 µM
